Results: patent publication US20240024520A1 (UCB, published 2024)
Values joined by “and” are separate entries in the source; they are usually repeats but may differ in a detail not shown here. Equal entries are not always repeated. Where two headings read alike, the source gives them in different places. Ends that are not written are not given here. * marks the point of attachment. Cam = NC(=O)C*

Legend:
[1] = biological target: T1, human complement component C5 (human, UniProt P01031 19-673; P01031 678-1676); assay: cell-based or functional assay
[2] = biological target: T1, human complement component C5
[3] = biological target: T1, human complement component C5; assay: cell-based or functional assay; remark: listed apart in the source
[4] = biological target: T1, human complement component C5; assay: cell-based or functional assay; remark: listed apart in the source
[5] = biological target: T1, human complement component C5; remark: listed apart in the source
[6] = biological target: T2, human complement component C3 (human, UniProt P01024 23-667; P01024 672-1663); assay: counter screen
T2 construct: also called biotinylated C3

ovalbumin = biological target: T3, ovalbumin (UniProt P01012 2-386); assay: counter screen
T3 sequence (looked up): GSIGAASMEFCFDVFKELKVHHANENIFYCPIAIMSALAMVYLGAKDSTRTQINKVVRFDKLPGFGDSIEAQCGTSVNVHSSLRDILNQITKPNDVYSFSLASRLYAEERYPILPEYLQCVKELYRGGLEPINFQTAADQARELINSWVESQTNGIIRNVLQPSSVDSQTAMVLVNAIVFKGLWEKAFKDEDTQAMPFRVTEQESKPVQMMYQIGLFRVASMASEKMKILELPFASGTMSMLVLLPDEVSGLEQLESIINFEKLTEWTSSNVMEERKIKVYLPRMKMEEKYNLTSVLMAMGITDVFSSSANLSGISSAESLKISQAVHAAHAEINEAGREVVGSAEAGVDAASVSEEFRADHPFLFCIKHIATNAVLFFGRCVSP

[7] = biological target: T1, human complement component C5; assay: SPR single-cycle kinetics
[8] = biological target: T1, human complement component C5; assay: cell-based or functional assay; remark: listed apart in the source
rabbit C5 = biological target: T4, rabbit C5 (rabbit); assay: SPR single-cycle kinetics, n=1
T4 construct: mature; also called rabbit C5 protein

mouse C5 = biological target: T5, mouse C5 (mouse, UniProt P06684 19-674; P06684 679-1680); assay: SPR single-cycle kinetics, n=1
T5 construct: mature; also called mouse C5 protein

[9] = biological target: T1, human complement component C5; assay: SPR multi-cycle kinetics, human C5 immobilised, mean of n=3
[10] = biological target: T1, human complement component C5; assay: cell-based or functional assay; remark: listed apart in the source
[11] = biological target: T1, human complement component C5; assay: SPR single-cycle kinetics, human C5, n=1
[12] = biological target: T1, human complement component C5; assay: cell-based or functional assay; remark: listed apart in the source
[13] = biological target: T1, human complement component C5; assay: cell-based or functional assay; remark: listed apart in the source
[14] = biological target: T1, human complement component C5; assay: cell-based or functional assay; remark: listed apart in the source
[15] = biological target: T1, human complement component C5; assay: cell-based or functional assay; remark: listed apart in the source
[16] = biological target: T1, human complement component C5; assay: cell-based or functional assay; remark: listed apart in the source
[17] = biological target: T1, human complement component C5; assay: SPR (Biacore), C5, mean of n=3
[18] = biological target: T1, human complement component C5; assay: cell-based or functional assay; remark: listed apart in the source
[19] = biological target: T1, human complement component C5; assay: SPR single-cycle kinetics (Biacore 8K), C5 amine-coupled to a CM5 chip
[20] = biological target: T1, human complement component C5; assay: phage ELISA, OD 630 nm, anti-M13 HRP; C5 coated directly and biotinylated C5 captured on streptavidin
[21] = biological target: T2, human complement component C3; assay: phage ELISA, OD 630 nm, anti-M13 HRP; C3 coated directly and biotinylated C3 captured on streptavidin
[22] = biological target: T2, human complement component C3; assay: SPR (Biacore), C3, mean of n=3
[23] = biological target: T1, human complement component C5; assay: SPR, cysteines reduced and capped with iodoacetamide; K92, cysteines reduced and capped with iodoacetamide
[24] = biological target: T1, human complement component C5; assay: SPR, cysteines reduced and capped with iodoacetamide; K57, cysteines reduced and capped with iodoacetamide
human serum albumin = biological target: T6, human serum albumin (human, UniProt P02768 25-609); assay: monoclonal phage ELISA
T6 construct: also called HSA

T2 sequence (P01024 23-667 limits assumed, chain 1 of 2): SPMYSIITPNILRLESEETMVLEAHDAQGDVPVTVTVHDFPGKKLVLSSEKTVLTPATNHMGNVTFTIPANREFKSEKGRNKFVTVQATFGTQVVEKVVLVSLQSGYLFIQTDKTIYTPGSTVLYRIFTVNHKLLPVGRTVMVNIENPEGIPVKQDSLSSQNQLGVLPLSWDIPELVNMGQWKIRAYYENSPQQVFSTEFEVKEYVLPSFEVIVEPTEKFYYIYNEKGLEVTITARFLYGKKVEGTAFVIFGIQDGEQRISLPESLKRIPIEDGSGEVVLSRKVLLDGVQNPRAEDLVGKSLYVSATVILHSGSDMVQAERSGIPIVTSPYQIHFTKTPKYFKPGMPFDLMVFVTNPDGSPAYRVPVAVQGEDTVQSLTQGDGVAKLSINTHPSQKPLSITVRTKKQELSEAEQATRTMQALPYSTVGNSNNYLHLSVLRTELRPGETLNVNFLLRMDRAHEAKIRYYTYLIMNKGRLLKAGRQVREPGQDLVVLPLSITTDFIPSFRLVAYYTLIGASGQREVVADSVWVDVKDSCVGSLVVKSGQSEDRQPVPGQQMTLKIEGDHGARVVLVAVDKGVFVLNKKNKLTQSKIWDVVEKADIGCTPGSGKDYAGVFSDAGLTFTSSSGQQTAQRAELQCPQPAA
T2 sequence (P01024 672-1663 limits assumed, chain 2 of 2): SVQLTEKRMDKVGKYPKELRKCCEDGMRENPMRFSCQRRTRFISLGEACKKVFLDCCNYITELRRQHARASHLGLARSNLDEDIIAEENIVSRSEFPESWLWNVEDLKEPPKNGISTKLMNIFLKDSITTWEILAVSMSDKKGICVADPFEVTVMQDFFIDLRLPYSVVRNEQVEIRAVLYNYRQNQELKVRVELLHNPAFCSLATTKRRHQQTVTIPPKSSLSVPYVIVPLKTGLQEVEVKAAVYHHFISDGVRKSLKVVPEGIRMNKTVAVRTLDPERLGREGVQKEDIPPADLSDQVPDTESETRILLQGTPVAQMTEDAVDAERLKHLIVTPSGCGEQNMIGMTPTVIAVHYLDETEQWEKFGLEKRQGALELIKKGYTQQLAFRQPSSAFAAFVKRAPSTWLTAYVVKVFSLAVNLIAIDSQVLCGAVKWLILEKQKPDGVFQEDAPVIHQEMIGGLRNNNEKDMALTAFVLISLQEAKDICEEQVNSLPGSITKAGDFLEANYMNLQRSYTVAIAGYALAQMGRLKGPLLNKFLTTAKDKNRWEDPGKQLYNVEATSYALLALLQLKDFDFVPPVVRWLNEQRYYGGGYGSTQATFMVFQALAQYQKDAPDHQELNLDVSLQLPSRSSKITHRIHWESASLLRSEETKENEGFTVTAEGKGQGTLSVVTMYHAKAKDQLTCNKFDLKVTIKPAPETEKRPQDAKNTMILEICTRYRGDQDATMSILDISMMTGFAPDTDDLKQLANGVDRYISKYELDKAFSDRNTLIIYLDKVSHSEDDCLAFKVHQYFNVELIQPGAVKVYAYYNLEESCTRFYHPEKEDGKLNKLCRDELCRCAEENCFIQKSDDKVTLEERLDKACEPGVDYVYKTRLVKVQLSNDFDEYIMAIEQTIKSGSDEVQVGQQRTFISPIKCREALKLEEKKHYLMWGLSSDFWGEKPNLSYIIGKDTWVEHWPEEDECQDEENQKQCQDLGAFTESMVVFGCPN
T5 sequence (P06684 19-674 limits assumed, chain 1 of 2): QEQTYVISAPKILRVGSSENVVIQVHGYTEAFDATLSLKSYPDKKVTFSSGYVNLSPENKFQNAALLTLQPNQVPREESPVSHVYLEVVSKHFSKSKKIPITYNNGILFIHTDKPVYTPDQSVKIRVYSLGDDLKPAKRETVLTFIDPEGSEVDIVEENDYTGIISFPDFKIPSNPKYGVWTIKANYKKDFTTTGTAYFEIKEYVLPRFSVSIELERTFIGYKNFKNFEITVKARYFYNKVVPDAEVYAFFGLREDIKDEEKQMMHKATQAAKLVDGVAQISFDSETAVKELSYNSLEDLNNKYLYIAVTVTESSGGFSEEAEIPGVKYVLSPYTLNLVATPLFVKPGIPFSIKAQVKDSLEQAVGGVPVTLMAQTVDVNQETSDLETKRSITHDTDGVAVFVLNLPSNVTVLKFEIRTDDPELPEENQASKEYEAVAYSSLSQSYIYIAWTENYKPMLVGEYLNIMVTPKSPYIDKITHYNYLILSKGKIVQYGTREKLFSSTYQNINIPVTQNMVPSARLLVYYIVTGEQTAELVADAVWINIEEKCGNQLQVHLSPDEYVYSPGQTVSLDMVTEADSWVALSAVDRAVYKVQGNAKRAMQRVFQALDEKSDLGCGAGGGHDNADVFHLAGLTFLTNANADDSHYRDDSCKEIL
T5 sequence (P06684 679-1680 limits assumed, chain 2 of 2): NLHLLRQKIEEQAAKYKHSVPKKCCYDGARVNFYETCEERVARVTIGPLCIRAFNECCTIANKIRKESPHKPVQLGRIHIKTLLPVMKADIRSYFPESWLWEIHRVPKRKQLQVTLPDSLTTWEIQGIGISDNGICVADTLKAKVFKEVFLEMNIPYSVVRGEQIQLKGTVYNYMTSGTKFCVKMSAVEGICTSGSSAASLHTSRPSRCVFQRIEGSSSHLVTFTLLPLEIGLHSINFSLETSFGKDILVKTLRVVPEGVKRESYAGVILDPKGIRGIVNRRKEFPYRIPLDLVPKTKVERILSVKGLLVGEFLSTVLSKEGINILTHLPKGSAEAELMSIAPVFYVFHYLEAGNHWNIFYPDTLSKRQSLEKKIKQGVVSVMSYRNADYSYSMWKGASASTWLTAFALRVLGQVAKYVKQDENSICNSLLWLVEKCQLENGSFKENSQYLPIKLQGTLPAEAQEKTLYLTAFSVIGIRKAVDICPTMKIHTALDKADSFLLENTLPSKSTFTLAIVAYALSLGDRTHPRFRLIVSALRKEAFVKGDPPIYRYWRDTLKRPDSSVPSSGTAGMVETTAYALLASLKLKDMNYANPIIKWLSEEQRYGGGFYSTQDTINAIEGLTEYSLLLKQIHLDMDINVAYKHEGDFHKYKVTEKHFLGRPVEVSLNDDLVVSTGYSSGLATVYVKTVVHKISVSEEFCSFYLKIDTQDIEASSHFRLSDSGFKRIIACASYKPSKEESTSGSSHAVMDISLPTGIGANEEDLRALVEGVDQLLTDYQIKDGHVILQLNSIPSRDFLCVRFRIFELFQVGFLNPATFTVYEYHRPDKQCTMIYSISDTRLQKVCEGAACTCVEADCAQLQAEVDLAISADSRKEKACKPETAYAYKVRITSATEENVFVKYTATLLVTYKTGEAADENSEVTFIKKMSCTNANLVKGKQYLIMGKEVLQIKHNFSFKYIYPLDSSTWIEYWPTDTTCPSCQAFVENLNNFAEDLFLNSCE
T1 sequence (P01031 19-673 limits assumed, chain 1 of 2): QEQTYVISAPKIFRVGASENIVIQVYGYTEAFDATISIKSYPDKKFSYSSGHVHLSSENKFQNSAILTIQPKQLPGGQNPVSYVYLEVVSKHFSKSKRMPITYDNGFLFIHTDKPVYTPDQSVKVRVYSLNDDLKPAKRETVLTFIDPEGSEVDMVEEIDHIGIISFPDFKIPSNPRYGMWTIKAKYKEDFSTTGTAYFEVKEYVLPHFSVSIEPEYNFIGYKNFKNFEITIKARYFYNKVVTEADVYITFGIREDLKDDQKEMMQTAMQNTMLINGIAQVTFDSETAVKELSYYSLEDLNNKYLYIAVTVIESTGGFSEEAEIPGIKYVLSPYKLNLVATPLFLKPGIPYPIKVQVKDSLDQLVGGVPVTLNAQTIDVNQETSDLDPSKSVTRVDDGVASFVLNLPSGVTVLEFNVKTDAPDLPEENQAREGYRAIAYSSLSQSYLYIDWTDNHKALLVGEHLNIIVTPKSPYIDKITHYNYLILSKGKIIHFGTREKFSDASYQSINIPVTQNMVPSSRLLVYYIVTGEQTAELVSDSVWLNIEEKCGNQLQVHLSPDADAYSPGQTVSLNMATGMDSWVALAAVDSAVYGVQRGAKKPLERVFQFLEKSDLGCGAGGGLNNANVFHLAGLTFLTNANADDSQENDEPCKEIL
T1 sequence (P01031 678-1676 limits assumed, chain 2 of 2): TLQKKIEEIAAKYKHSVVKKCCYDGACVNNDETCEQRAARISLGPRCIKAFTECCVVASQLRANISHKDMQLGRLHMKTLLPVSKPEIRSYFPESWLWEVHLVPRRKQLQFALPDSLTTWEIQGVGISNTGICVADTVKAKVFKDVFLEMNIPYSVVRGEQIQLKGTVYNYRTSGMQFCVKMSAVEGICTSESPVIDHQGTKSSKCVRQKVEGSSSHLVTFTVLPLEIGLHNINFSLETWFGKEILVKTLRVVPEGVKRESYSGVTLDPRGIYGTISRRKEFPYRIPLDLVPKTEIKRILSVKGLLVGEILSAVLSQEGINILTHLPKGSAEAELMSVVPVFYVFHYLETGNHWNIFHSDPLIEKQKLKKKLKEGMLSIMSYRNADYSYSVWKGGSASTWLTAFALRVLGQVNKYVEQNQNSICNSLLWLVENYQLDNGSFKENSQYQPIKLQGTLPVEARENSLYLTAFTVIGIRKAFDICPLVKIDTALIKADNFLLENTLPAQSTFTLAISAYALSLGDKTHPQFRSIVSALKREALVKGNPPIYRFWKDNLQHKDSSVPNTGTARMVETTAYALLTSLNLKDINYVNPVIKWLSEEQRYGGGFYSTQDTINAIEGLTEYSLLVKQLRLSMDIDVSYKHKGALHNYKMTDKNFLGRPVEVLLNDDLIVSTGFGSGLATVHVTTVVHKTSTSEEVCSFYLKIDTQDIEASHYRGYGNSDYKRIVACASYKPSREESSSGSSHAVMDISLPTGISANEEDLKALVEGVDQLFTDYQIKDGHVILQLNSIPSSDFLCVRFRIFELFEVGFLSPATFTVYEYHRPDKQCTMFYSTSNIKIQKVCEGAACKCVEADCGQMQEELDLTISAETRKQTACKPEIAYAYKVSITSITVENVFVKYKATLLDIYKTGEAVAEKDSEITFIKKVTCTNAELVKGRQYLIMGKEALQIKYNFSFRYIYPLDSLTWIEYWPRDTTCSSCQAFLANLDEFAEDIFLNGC

B1: K8 knob domain peptide cleaved from the 645 Fab (peptide)
peptide: GSVCPDGFNWGYGCAAGSSRFCTRHDWCCYDERADSHTYGFCTGNRVENLYFQ
notes: Recombinant, cut out by TEV protease
Inhibition of classical pathway mediated C5a release, geomean IC50 [1]: 0.0099 µM | Kd [2]: 0.0173 µM | koff [2]: 0.000357 s⁻¹ | kon [2]: 26100 M⁻¹ s⁻¹ | Inhibition of classical pathway mediated bacterial lysis, geomean IC50 [3]: 16.9 µM | Inhibition of alternative pathway mediated C5a release, average Emax [4]: 71.8% | Inhibition of alternative pathway mediated C5a release, geomean IC50 [4]: 0.15 µM | IC50 [5]: 0.0207 µM and 0.0312 µM and 0.0261 µM and 0.0256 µM | Ki [5]: 0.0128 µM | binding result [6]: no binding | binding result (ovalbumin): no binding | Kd [7]: < 0.04 µM | Inhibition of alternative pathway mediated bacterial lysis, average Emax [8]: 98.1% | Inhibition of alternative pathway mediated bacterial lysis, geomean IC50 [8]: 25.8 µM | Kd (rabbit C5): 0.00912 µM | koff (rabbit C5): 0.000296 s⁻¹ | kon (rabbit C5): 32400 M⁻¹ s⁻¹ | Kd (mouse C5): 0.00469 µM | koff (mouse C5): 0.00019 s⁻¹ | kon (mouse C5): 40400 M⁻¹ s⁻¹

B2: K92 knob domain peptide cleaved from the 645 Fab (peptide)
peptide: GSGSVTCPEGWSECGVAIYGYECGRWGCGHFLNSGPNISPYVTTGSENLYFQ
notes: as for B1
Kd [2]: < 0.00085 µM | koff [2]: 0.000113 s⁻¹ | kon [2]: 124000 M⁻¹ s⁻¹ | Inhibition of alternative pathway mediated C5a release, average Emax [4]: 43.3% | Inhibition of alternative pathway mediated C5a release, geomean IC50 [4]: 0.0433 µM | IC50 [5]: 0.0076 µM and 0.0074 µM and 0.0073 µM | Ki [5]: 0.0037 µM | binding result [6]: no binding | binding result (ovalbumin): no binding | Kd [7]: < 0.04 µM | Inhibition of alternative pathway mediated bacterial lysis, average Emax [8]: 91% | Inhibition of alternative pathway mediated bacterial lysis, geomean IC50 [8]: 2.46 µM | Kd (rabbit C5): 0.0766 µM | koff (rabbit C5): 0.00466 s⁻¹ | kon (rabbit C5): 60800 M⁻¹ s⁻¹ | Kd (mouse C5): 0.0631 µM | koff (mouse C5): 0.00487 s⁻¹ | kon (mouse C5): 77200 M⁻¹ s⁻¹

B3: K8 knob domain peptide, chemically synthesised, free energy method (peptide)
peptide: VCPDGFNWGYGCAAGSSRFCTRHDWCCYDERADSHTYGFCTGNRV
modifications: disulfide (positions not given here); not fully specified
notes: Disulphides formed in glutathione redox buffer; also called K8chemFE; K8chem
Kd [9]: 0.00546 µM | koff [9]: 0.000385 s⁻¹ | kon [9]: 70500 M⁻¹ s⁻¹ | Classical pathway C5b deposition ELISA, average Emax [10]: 47.3% | Classical pathway C5b deposition ELISA, geomean IC50 [10]: 0.0098 µM | Kd [11]: 0.0121 µM | koff [11]: 0.000397 s⁻¹ | kon [11]: 32900 M⁻¹ s⁻¹ | Alternative pathway C5b neoepitope ELISA, average Emax [12]: 91.5% | Alternative pathway C5b neoepitope ELISA, geomean IC50 [12]: 0.0461 µM | alternative pathway complement ELISA (C5b deposition); IC50 (read off the curve) [13]: ~0.08 µM | classical pathway complement ELISA (C5b deposition); IC50 (read off the curve) [14]: ~0.03 µM

B4: hC3nb1-K57 loop 1 with C-terminal single-chain Fc tag (bispecific antibody, not shown: a dimerising Fc or GST)
VHH: QVQLVETGGGLVQASGGGSGCPPGYKSGVDCSPGSECKWGCYAVDGRRYGGYGADSGVSGGGSGSLRLSCAASGSIFSLNAMGWFRQAPGKEREFVATINRSGGRTYYADSVKGRFTISRDNGKNMVYLQMHSLKPEDTAIYYCAAGTGWSPQTDNEYNYWGQGTQVTVSS
alternative pathway C5b neoepitope ELISA; IC50 (read off the curve) [15]: ~0.2 µM | classical pathway C5b neoepitope ELISA; IC50 (read off the curve) [16]: ~0.05 µM

B5: hC3nb1-K57 loop 2 delta proline with C-terminal single-chain Fc tag (bispecific antibody, V domains shown, not shown: a dimerising Fc or GST)
VH: WFRQASGGGSGCPPGYKSGVDCSPGSECKWGCYAVDGRRYGGYGADSGVSGGGSKEREFVATINRSGGRTYYADSVKGRFTISRDNGKNMVYLQMHSLKPEDTAIYYCAAGTGWSPQTDNEYNYWGQGTQVTVSS
notes: also called hC3Nb1Loop2ΔP
classical pathway C5b neoepitope ELISA; IC50 (read off the curve) [16]: ~0.02 µM | Kd [17]: 0.000864 µM

B6: K92chemFE knob domain peptide (peptide)
peptide: TCPEGWSECGVAIYGYECGRWGCGHFLNSGPNISPYVST
notes: also called chemical K92
Kd [9]: 0.000411 µM | koff [9]: 0.000101 s⁻¹ | kon [9]: 283000 M⁻¹ s⁻¹ | alternative pathway haemolysis assay; IC50 (read off the curve) [18]: ~0.2 µM | alternative pathway complement ELISA (C5b deposition); IC50 (read off the curve) [13]: ~0.07 µM

B7: K60 knob domain peptide cleaved from the 645 Fab (peptide)
peptide: GSKSCREGYIDGGGCCLPGSCRGCACSYYDWLKCPRDCRGTSEEENLYFQ
notes: as for B1
binding result [6]: no binding | binding result (ovalbumin): no binding | binding result [19]: no binding

B8: hC3nb1 VHH displayed on M13 phage (VHH)
VHH: QVQLVETGGGLVQAGGSLRLSCAASGSIFSLNAMGWFRQAPGKEREFVATINRSGGRTYYADSVKGRFTISRDNGKNMVYLQMHSLKPEDTAIYYCAAGTGWSPQTDNEYNYWGQGTQVTVSS
notes: not shown: poly-histidine, c-myc tag, M13 pIII
binding result [20]: no binding

B9: hC3nb1-K149 (K149 ultralong CDR-H3 in framework 3 of hC3nb1) displayed on M13 phage (bispecific antibody)
VHH: QVQLVETGGGLVQAGGSLRLSCAASGSIFSLNAMGWFRQAPGKEREFVATINRSGGRTYYADSVKGRFTISRDNGTSVLQSTKPQKSCPDGFSYRSWDDFCCPMVGRCLAPRNTYTTEFTIEAKNMVYLQMHSLKPEDTAIYYCAAGTGWSPQTDNEYNYWGQGTQVTVSS
notes: also called hC3nb1-K149 CDR-H3; not shown: poly-histidine, c-myc tag, M13 pIII
binding result [20]: no binding | binding result [21]: no binding

B10: hC3nb1-K57 C-term with C-terminal single-chain Fc tag (bispecific antibody, V domains shown, not shown: a dimerising Fc or GST)
VH: QVQLVETGGGLVQAGGSLRLSCAASGSIFSLNAMGWFRQAPGKEREFVATINRSGGRTYYADSVKGRFTISRDNGKNMVYLQMHSLKPEDTAIYYCAAGTGWSPQTDNEYNYWGQGTQVTVSS
notes: also called hC3Nb1 C-Term
Kd [22]: 0.000302 µM | Kd [17]: 0.000271 µM

B11: K92, reduced and cysteines capped with iodoacetamide (peptide)
peptide: TC(Cam)PEGWSEC(Cam)GVAIYGYEC(Cam)GRWGC(Cam)GHFLNSGPNISPYVST
notes: also called K92 (loss of disulphide bonds)
Kd [23]: 2 µM

B12: K57, reduced and cysteines capped with iodoacetamide (peptide)
peptide: GC(Cam)PPGYKSGVDC(Cam)SPGSEC(Cam)KWGC(Cam)YAVDGRRYGGYGADSGVGS
notes: also called K57 (loss of disulphide bonds)
Kd [24]: 0.076 µM

B13: ultralong CDR-H3 of SEQ ID NO: 498 displayed on M13 phage (other)
chain: TTVHQQTHQDQTCPDGYTRTNYYCRRDGCGSWCNGAERQQPCIRGPCCCDLTYRTAYEYHVET
notes: as for B8
binding result (human serum albumin): binds
